Test results as given in EP4692114A1, “CALCITONIN ANALOGUE, AND DERIVATIVE THEREOF AND USE THEREOF” (Hangzhou Sciwind Biosciences Co., Ltd., priority 2023, dated 2024).
*1 amine or outer side, *2 acyl side, *3 side chain or, on linkers, in order; H or OH if unused. Where a SMILES comes first, the peptide text is derived from it. Where no end group is shown, it is not given here. The star is where a group is joined. C20 diacid = O=C(O)CCCCCCCCCCCCCCCCCCC(=O)*; γGlu = O=C(O)[C@H](CCC(=O)[*:2])N[*:1]; Inp = O=C(O)C1CCNCC1

T1: human amylin receptors (Homo sapiens, UniProt O60896+P30988)
T1 sequence (P30988 25-474): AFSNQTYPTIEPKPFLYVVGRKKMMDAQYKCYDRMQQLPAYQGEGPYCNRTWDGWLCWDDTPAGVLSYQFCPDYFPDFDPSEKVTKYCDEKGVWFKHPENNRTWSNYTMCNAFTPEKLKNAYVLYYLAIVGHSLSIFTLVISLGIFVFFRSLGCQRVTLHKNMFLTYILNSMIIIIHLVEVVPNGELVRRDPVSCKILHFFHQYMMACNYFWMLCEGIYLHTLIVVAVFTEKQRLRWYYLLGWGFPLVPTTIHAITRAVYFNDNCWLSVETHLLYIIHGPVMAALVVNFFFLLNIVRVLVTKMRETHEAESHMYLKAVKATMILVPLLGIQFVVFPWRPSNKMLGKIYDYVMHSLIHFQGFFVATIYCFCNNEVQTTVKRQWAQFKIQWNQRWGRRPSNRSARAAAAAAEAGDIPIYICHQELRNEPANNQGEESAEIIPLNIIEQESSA
T1 sequence (O60896 24-148 partner): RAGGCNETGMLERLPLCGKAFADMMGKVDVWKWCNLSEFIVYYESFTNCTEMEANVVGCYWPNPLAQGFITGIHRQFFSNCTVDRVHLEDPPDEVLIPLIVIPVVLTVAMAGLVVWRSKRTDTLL

T2: human amylin receptor (AMY3) on CHO-K1/Gal5/AMY3 cells (human, UniProt P30988 25-474; O60896 24-148)
T2 sequence (looked up) 1: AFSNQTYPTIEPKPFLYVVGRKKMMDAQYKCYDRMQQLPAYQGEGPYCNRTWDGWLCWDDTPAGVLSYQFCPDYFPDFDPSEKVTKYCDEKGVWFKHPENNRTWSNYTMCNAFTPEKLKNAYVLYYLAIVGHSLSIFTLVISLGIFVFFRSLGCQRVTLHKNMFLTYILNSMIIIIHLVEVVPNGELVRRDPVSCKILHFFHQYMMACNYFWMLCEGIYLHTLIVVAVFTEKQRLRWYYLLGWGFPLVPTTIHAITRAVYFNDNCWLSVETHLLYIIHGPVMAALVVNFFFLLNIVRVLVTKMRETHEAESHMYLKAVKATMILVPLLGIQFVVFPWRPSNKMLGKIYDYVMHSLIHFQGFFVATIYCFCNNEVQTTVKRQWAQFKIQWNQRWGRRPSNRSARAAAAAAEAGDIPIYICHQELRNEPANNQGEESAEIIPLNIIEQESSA
T2 sequence (looked up) 2: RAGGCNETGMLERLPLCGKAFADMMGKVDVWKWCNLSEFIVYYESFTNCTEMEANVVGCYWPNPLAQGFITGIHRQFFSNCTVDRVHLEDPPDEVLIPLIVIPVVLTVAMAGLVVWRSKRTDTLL


What was measured:
human amylin receptors = molecular target: T1, human amylin receptors; assay: Luciferase assay of amylin (amylin receptor/CRE-luc cell line); format: cell-based; details: stably transfected amylin receptor/CRE-luc CHO cells (CHO-K1/Gal5/AMY3), 24 hours incubation, luciferase readout;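 note: agonist potency from luminescence of cAMP response element-driven luciferase, EC50 derived from a standard curve of signal versus compound concentration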
[1] = molecular target: T2, human amylin receptor (AMY3) on …; assay: cell-based or functional assay

| EC50 (human amylin receptors) | EC50/nM, CRE-luciferase in amylin receptor/CRE-luc CHO cells [1] | Molecule |
| --- | --- | --- |
| 17 pM |  | CC(C)C[C@H](NC(=O)[C@H](CCCNC(=N)N)NC(=O)CNC(=O)[C@H](CC(C)C)NC(=O)[C@@H](NC(=O)[C@H](C)NC(=O)[C@@H](NC(=O)[C@H](CO)NC(=O)[C@H](CC(C)C)NC(=O)[C@H](CCC(N)=O)NC(=O)[C@H](CO)NC(=O)[C@H](C)NC(=O)[C@H](CC(=O)O)NC(=O)CCCCCCCCCCCCCCCCCCC(=O)O)[C@@H](C)O)C(C)C)C(=O)N[C@@H](CO)C(=O)N[C@@H](CCC(=O)O)C(=O)N[C@@H](CCC(=O)O)C(=O)N[C@@H](CC(C)C)C(=O)N[C@@H](Cc1c[nH]cn1)C(=O)N[C@@H](CCCNC(=N)N)C(=O)N[C@@H](CC(C)C)C(=O)N[C@@H](CCC(N)=O)C(=O)N[C@@H](CC(=O)O)C(=O)N[C@@H](Cc1ccc(O)cc1)C(=O)N1CCC[C@H]1C(=O)N[C@@H](CCCNC(=N)N)C(=O)N[C@H](C(=O)N[C@@H](CC(=O)O)C(=O)N[C@H](C(=O)NCC(=O)N[C@@H](CO)C(=O)NCC(=O)N[C@@H](CO)C(=O)N1CCC[C@H]1C(N)=O)C(C)C)[C@@H](C)O [M54] ({C20 diacid}-DASQLSTAVLGRLSEELHRLQDYPRTDVGSGSP-NH2) |
| 17 pM |  | CC(C)C[C@H](NC(=O)[C@H](CCCNC(=N)N)NC(=O)CNC(=O)[C@H](CC(C)C)NC(=O)[C@@H](NC(=O)[C@H](C)NC(=O)[C@@H](NC(=O)[C@H](CO)NC(=O)[C@H](CC(C)C)NC(=O)[C@H](CCC(N)=O)NC(=O)[C@H](CO)NC(=O)[C@H](C)NC(=O)C1CCN(C(=O)CCCCCCCCCCCCCCCCCCC(=O)O)CC1)[C@@H](C)O)C(C)C)C(=O)N[C@@H](CO)C(=O)N[C@@H](CCC(=O)O)C(=O)N[C@@H](CCC(=O)O)C(=O)N[C@@H](CC(C)C)C(=O)N[C@@H](Cc1c[nH]cn1)C(=O)N[C@@H](CCCNC(=N)N)C(=O)N[C@@H](CC(C)C)C(=O)N[C@@H](CCC(N)=O)C(=O)N[C@@H](CC(=O)O)C(=O)N[C@@H](Cc1ccc(O)cc1)C(=O)N1CCC[C@H]1C(=O)N[C@@H](CCCNC(=N)N)C(=O)N[C@H](C(=O)N[C@@H](CC(=O)O)C(=O)N[C@H](C(=O)NCC(=O)N[C@@H](CO)C(=O)NCC(=O)N[C@@H](CO)C(=O)N1CCC[C@H]1C(N)=O)C(C)C)[C@@H](C)O [M56] ({C20 diacid-Inp}-ASQLSTAVLGRLSEELHRLQDYPRTDVGSGSP-NH2) |
|  | 0.033 nM | ASQLSTAVLGRLSQELHRLQDYPRTDVGSGSP-NH2 [calcitonin analogue M5] |
|  | 0.052 nM | {C20 diacid-γGlu}-KSQLSTDVLGRLSQELHRLQDYPRTDVGSGSP-NH2 (SMILES CC(C)C[C@H](NC(=O)[C@H](CCCNC(=N)N)NC(=O)CNC(=O)[C@H](CC(C)C)NC(=O)[C@@H](NC(=O)[C@H](CC(=O)O)NC(=O)[C@@H](NC(=O)[C@H](CO)NC(=O)[C@H](CC(C)C)NC(=O)[C@H](CCC(N)=O)NC(=O)[C@H](CO)NC(=O)[C@H](CCCCN)NC(=O)CC[C@H](NC(=O)CCCCCCCCCCCCCCCCCCC(=O)O)C(=O)O)[C@@H](C)O)C(C)C)C(=O)N[C@@H](CO)C(=O)N[C@@H](CCC(N)=O)C(=O)N[C@@H](CCC(=O)O)C(=O)N[C@@H](CC(C)C)C(=O)N[C@@H](Cc1c[nH]cn1)C(=O)N[C@@H](CCCNC(=N)N)C(=O)N[C@@H](CC(C)C)C(=O)N[C@@H](CCC(N)=O)C(=O)N[C@@H](CC(=O)O)C(=O)N[C@@H](Cc1ccc(O)cc1)C(=O)N1CCC[C@H]1C(=O)N[C@@H](CCCNC(=N)N)C(=O)N[C@H](C(=O)N[C@@H](CC(=O)O)C(=O)N[C@H](C(=O)NCC(=O)N[C@@H](CO)C(=O)NCC(=O)N[C@@H](CO)C(=O)N1CCC[C@H]1C(N)=O)C(C)C)[C@@H](C)O) [calcitonin derivative M37] |
|  | 0.017 nM | {C20 diacid}-DASQLSTAVLGRLSEELHRLQDYPRTDVGSGSP-NH2 (SMILES CC(C)C[C@H](NC(=O)[C@H](CCCNC(=N)N)NC(=O)CNC(=O)[C@H](CC(C)C)NC(=O)[C@@H](NC(=O)[C@H](C)NC(=O)[C@@H](NC(=O)[C@H](CO)NC(=O)[C@H](CC(C)C)NC(=O)[C@H](CCC(N)=O)NC(=O)[C@H](CO)NC(=O)[C@H](C)NC(=O)[C@H](CC(=O)O)NC(=O)CCCCCCCCCCCCCCCCCCC(=O)O)[C@@H](C)O)C(C)C)C(=O)N[C@@H](CO)C(=O)N[C@@H](CCC(=O)O)C(=O)N[C@@H](CCC(=O)O)C(=O)N[C@@H](CC(C)C)C(=O)N[C@@H](Cc1c[nH]cn1)C(=O)N[C@@H](CCCNC(=N)N)C(=O)N[C@@H](CC(C)C)C(=O)N[C@@H](CCC(N)=O)C(=O)N[C@@H](CC(=O)O)C(=O)N[C@@H](Cc1ccc(O)cc1)C(=O)N1CCC[C@H]1C(=O)N[C@@H](CCCNC(=N)N)C(=O)N[C@H](C(=O)N[C@@H](CC(=O)O)C(=O)N[C@H](C(=O)NCC(=O)N[C@@H](CO)C(=O)NCC(=O)N[C@@H](CO)C(=O)N1CCC[C@H]1C(N)=O)C(C)C)[C@@H](C)O) [calcitonin derivative M54] |
